Data from the supplement of paper PMC10567573.

B1: RTP4 (parent)
chain: AFGWFRCSSCQRSWASAQVQILCH
B2: OR3A1 (parent)
chain: PMYFFLGNLSVLDVGCISVTVPSM
B3: C10orf62 (parent)
chain: GHSHHSHHGHPSHQSHSLPNRRH

Variants of: B1
Assay: protein stability index of a GFP-peptide fusion (GPS, HEK-293T) (PSI 1-6); higher = more stable
Settings: c terminus: a fixed tail appended
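Note: lentivirally expressed fusions sorted by FACS into six bins by GFP to DsRed ratio, PSI derived from sequencing read proportions per bin multiplied by bin number.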

Protein stability index, by site and new letter:
Q18: M 3.17, K 1.42, D 2.22, W 2.88, T 1.57, N 1.71, H 2.68, I 2.59, P 2.52, S 2.14, V 4.68, C 3.51, A 2.37
W4: Y 2.37, T 1.47, G 3.48, E 1.91, P 3.99, C 2.77, H 2.49, L 1.67
R6: Y 2.65, H 2.77, F 1.93, L 3.45, A 2.65, Q 2.12, I 3.19, C 2.07, N 1.77
R12: I 2.33, Y 2.83, S 2, N 1.91, W 2.71, M 2.86, P 3.2, Q 3.2, C 3.76, L 1.65, D 2.1, T 3.84, K 1.9
Q20: I 2.42, K 2.83, N 2.4, Y 3.08, D 1.66, H 2.97, T 1.24, W 1.69, S 2.84, C 2.17, P 3.22, L 4.4, A 1.57, V 2.08
S13: R 2.27, P 2.41, L 1.69, W 3.02, D 2.27, M 2.09, H 2.36, F 1.54, V 3.12, I 1.36, Y 3.16, Q 2.43, N 3.74
C23: R 1.49, I 4.29, S 1.8, K 2.35, Y 2.81, E 2.8, L 2.78, F 2.59, T 1.93, P 2.83, M 3.79, N 2.21, D 1.92, Q 3.85, H 1.84
C7: H 2.97, I 2.4, S 3.67, D 3.61, V 3.3, K 3.9, L 4.23, E 2.89, Y 2.67
F2: P 2.67, D 2.56, T 2.73
H24: A 1.84, P 3.58, V 4.55, D 1.97, N 3.06, R 3.52, Y 3.39, I 3.64, F 3.12, W 1.61, K 1.83
Q11: H 2.43, P 2.27, G 2.23, R 2.89, Y 4.15, E 1.88, N 2.49, K 3.01, W 1.81, T 3.55, V 4.38, I 3.81, D 2.83
C10: N 3.16, R 2.77, L 2.7, F 3.06, G 3.33
V19: M 3.54, R 2.36, H 1.59, A 1.57, E 2.23, G 2.58, P 1.35, D 1.52, S 2.36, Y 3.2, I 3.39, T 2.79, N 3, C 1.56, K 1.67, Q 1.91, F 3.22
W14: S 2.45, M 1.1, R 1.48, V 1.36, T 3.22, H 1.95, I 2.21, Y 2.11, K 2.54, L 1.57, C 3.08, A 1.8, F 3.1, N 2.96, P 3.31
F5: Q 2.99, C 1.77, Y 4, I 2.35, K 3.49, G 2.57
S9: F 2.75, L 2.59, C 2.09, N 2.39, M 3.56, Q 2.35, T 4.83, I 2.15, V 1.64, P 2.5, K 1.72, Y 3.01, G 1.9, H 3.52
G3: H 1.14, D 1.45, P 3.37, A 2.75, N 2.75
S8: E 1.83, V 3.2, P 2.27, D 3.96, H 2.39
I21: W 1.37, C 3.07, A 1.68, F 2.39, S 3.43, R 1.72, N 1.68, Q 1.62, Y 3.2, K 1.03, G 1.49, L 2.34, H 2.27, T 2.9
A15: V 1.07, F 2, W 2.79, K 2.12, C 2.98, Y 2.87, D 1.24, S 2.04, H 1.83, N 4.46, E 1.6, I 1.53
A17: N 1.65, Y 2.43, W 2.94, V 2.19, P 2.21, H 2.31, I 3.06, E 2.93, C 2.38, K 3.13, D 3.07, M 1.86
A1: E 1.79, T 2.12, G 3.21, W 2.44, K 3.61, L 2.49, Y 2.87, R 3.15, S 4.21, C 2.22, V 2.11, H 1.78, M 2.42
L22: G 1.41, M 1.32, A 2.09, C 1.4, N 2.66, W 2.17, P 3.05, T 1.65, H 2.13, R 1.61, D 1.79
S16: F 2.12, W 1.86, D 2.46, K 2.9, E 3.11, N 2.77, A 2.73, H 3.4, G 1.75, I 2.64, Y 1.78, T 1.95, R 2.79

Variants of: B2
Assay: as above
Settings: c terminus: a fixed tail appended

Protein stability index: each site, then its substitutions
M24: Y 2.58

Variants of: B3
Assay: as above
Settings: c terminus: native

Protein stability index of substitutions, site by site:
H4: V 2.93, C 2.69, A 2.45, Y 2.93, E 2.76, K 2.15, I 2.58, D 2.31, N 4.06, Q 2.37, F 3.61, P 3.51, G 3.39
H2: M 3.72, W 3, V 1.5, E 2.36, Q 3.15, T 3.56, K 3.36, D 2.97, L 3.18, A 3.05, N 3.26, R 3.13, F 3.23, P 1.89, G 2.22, S 3.15, Y 2.31
S3: Q 2.63, I 2.2, Y 3.14, W 2.33, V 3.19, D 2.29, A 3.05, C 3.13, H 2.27, F 2.38, N 2.89, R 3.09, L 1.31, K 2.75
H5: L 2.65, A 2.92, I 2.64, C 3.11, E 2.3, F 3.95, K 1.69, G 2.33, D 3.54
G1: L 3.98, P 3.63, W 3.55, H 2.43, A 4.7, Q 4.66, D 2.81, S 2.81, R 3.44, N 2.38, T 2.66, K 2.79, F 3.19, Y 2.42, I 3.33, M 2.19, E 2.45
